# Biological target: CENP-A nucleosome (CENP-A^Nuc), histone octamer of CENP-A, H4, H2A and H2B wrapped with C0N3 or CEN3 DNA (S. cerevisiae) (UniProt P36012)
# Assay: SEC-MALS; CENP-A nucleosome (C0N3 or CEN3 DNA), CENP-C, CENP-LN, CENP-OPQU+, CENP-HIK-TW, CBF1 and CBF3^Core mixed at 2 μM; cross-linked with 3 mM BS3; 10 mM Hepes pH 8.0, 80 mM NaCl, 1 mM EDTA, 0.5 mM TCEP
substance,measurement,value
"CCAN, fully assembled (CENP-C, CENP-LN, CENP-OPQU+, CENP-HIK-TW) (from UniProt P35201 1-549; P38265 1-245; P38907 1-458; Q06675 1-368; Q02732 1-369; P53298 1-406; P38313 1-324; Q12493 1-238; Q06162 1-153; Q12262 1-181; Q12748 1-733; P47167 1-239; P43618 1-361; Q2V2P8 1-89) (complex)",stoichiometry N,2

# — article PMC10381965
